The values that follow come from patent publication US20110020437A1 (APIM THERAPEUTICS, published 2011).

The experiment has as its target T1, proliferating cell nuclear antigen (PCNA) (UniProt P12004 1-261).
T1 construct: Used both for endogenous PCNA of HeLa cell extracts (co-IP, cross-linking) and for the untagged 'PCNA' used as probe in the dot blot; also called endogenous PCNA
Put plainly: co-IP with anti-GFP antibodies from stably expressing cells, anti-PCNA western blot. The protocol:
An in-house affinity purified rabbit polyclonal antibody raised against GFP protein, which also recognises EYFP and ECFP proteins, was covalently linked to protein-A paramagnetic beads (Dynal®) according to procedure from New England Biolabs® Inc (from now on called α-GFP beads). Each fraction was incubated with α-GFP beads (10 μl) during constant rotation at 4° C. over night (IP). After IP, the beads were washed 4 times with 200 μl 10 mM Tris-HCl, 50 mM KCl (pH 7.5), with 5 min incubation on ice in between. The beads were then resuspended in NuPAGE ® (Invitrogen) loading buffer and 1 mM DTT, heated, and separated on 10% or 4-12% Bis-Tris-HCl (NuPAGE®) gels and transferred to PVDF membranes (Imrnobilon®, Millipore). The membranes were blocked for 1 h in 5% low fat dry milk in PBST (PBS with 0.1% Tween® 20). The primary antibodies, α-PCNA (PC10, Santa Cruz biotechnology Inc.) and α-GFP were diluted in 1% dry milk in PBST and incubated for 1 h, followed by 1 h incubation with secondary antibodies, Polyclonal Rabbit Anti-mouse IgG/HRP and Polyclonal Swine Anti-rabbit IgG/HRP, respectively (DakoCytomation, Denmark). The membranes were treated with chemiluminescence reagent (SuperSignal® West Femto Maximum, PIERCE), and the proteins visualised in Kodak Image Station 2000R. […]

T1 sequence (P12004 whole entry): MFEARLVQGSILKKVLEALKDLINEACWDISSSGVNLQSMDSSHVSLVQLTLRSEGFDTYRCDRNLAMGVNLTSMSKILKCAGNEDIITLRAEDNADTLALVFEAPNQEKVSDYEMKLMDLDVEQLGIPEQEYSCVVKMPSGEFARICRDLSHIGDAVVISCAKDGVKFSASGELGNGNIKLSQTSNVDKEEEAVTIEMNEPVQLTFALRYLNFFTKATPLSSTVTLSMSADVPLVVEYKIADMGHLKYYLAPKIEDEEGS

B1: hABH211-261-EYFP (other, human, UniProt Q6NS38 11-261, looked up)
chain: GGLLRKQEEQEPTGEEPAVLGGDKESTRKRPRREAPGNGGHSAGPSWRHIRAEGLDCSYTVLFGKAEADEIFQELEKEVEYFTGALARVQVFGKWHSVPRKQATYGDAGLTYTFSGLTLSPKPWIPVLERIRDHVSGVTGQTFNFVLINRYKDGCDHIGEHRDDERELAPGSPIASVSFGACRDFVFRHKDSRGKSPSRRVAVVRLPLAHGSLLMMNHPTNTHWYHSLPVRKKVLAPRVNLTFRKILLTKK
notes: not shown: C-terminal EYFP tag (pEYFP-N1)
B1: the binding result was “no binding”.
